These results are taken from patent US20050124544A1.

Where no end group is shown, it is not given here.

The target of assay [1] is 2C11 human monoclonal antibody. Kind of assay: competition ELISA: 2C11 preincubated with peptide at 0.002 (µM per paragraph 93), then on immobilised FVIII. In general terms: In an ELISA, binding on a coated surface is turned into a signal by an enzyme label.
Assay [2] concerns the target 2C11 human monoclonal antibody. Kind of assay: competition ELISA: 2C11 preincubated with peptide at 2 (µM per paragraph 93), then on immobilised FVIII.
Assay [3] addresses 2C11 human monoclonal antibody. The assay can be described thus: competition ELISA: 2C11 preincubated with peptide at 200 (µM per paragraph 93), then on immobilised FVIII.
The target of assay [4] is 2C11 human monoclonal antibody. The assay can be described thus: competition ELISA: 2C11 preincubated with peptide at 0.02 (µM per paragraph 93), then on immobilised FVIII.
The target in assay [5] is 2C11 human monoclonal antibody. The assay can be described thus: competition ELISA: 2C11 preincubated with peptide at 20 (µM per paragraph 93), then on immobilised FVIII.
The target in assay [6] is 2C11 human monoclonal antibody. The assay can be described thus: cell-based or functional assay.

B1: peptide 105 (…) (peptide)
peptide: Ac-CSKWHNRSKRHC
modifications: cysteine pairing not given here
By % inhibition is commonly meant the percentage by which the read-out fell short of the control. A higher % inhibition goes with strong suppression. In the case of B1, the % inhibition was 0% in assay [1]; 10.3% in assay [2]; 75.6% in assay [3]; 0% in assay [4]; 45% in assay [5].

B2: peptide 103 (…) (peptide)
peptide: Ac-KCGRWSNRSSCT
modifications: cysteine pairing not given here
As to B2, the % inhibition in assay [1] was found to be 0%; in assay [2] it was 3.47%; in assay [3], 62.7%; in assay [4] it was 0%; in assay [5] it was 28.3%.

B3: peptide 104 (…) (peptide)
peptide: Ac-ECGSHAWGRRCK
modifications: cysteine pairing not given here
Regarding B3, the % inhibition in assay [1] is 0%; in assay [2], 13.4%; in assay [3], 63.7%; in assay [4], 0%; in assay [5] it was 30.7%.

B4: peptide 108 (…) (peptide)
peptide: Ac-QCHTWSNRRSCL
modifications: cysteine pairing not given here
Take B4: the % inhibition in assay [1] was found to be 0%; in assay [2], 15.8%; in assay [3] it was 60.7%; in assay [4] it was 0%; in assay [5], 26%.

B5: peptide 107 (…) (peptide)
peptide: Ac-SCHAWSNRRTCR
modifications: cysteine pairing not given here
Turning to B5, the % inhibition in assay [1] was determined as 0%; in assay [2], 37.3%; in assay [3], 90.5%; in assay [4], 0%; in assay [5], 80%. The same molecule showed a Bethesda test: neutralization of the inhibiting activity of 2C11 (3.5 nM), IC50 in assay [6] of 19 µM. Besides, the Bethesda test: peptide concentration for total neutralization of 2C11 (3.5 nM) in assay [6] was 100 µM. The in vivo (FVIII-deficient mice): procoagulant activity of injected FVIII kept with 2C11 (16.7 nM) plus peptide 107 (650 µM) in assay [6] was determined as 52%.

B6: peptide 109 (…) (peptide)
peptide: Ac-RCHAWSNRKSCV
modifications: cysteine pairing not given here
In the case of B6, the % inhibition in assay [1] is 0%; in assay [2], 12.5%; in assay [3] it was 75%; in assay [4] it was 0%; in assay [5] it was 37.5%.

B7: peptide 106 (…) (peptide)
peptide: Ac-CMKWSNRSSRWC
modifications: cysteine pairing not given here
Regarding B7, the % inhibition came to 0% in assay [1]; 0% in assay [2]; 36.6% in assay [3]; 0% in assay [4]; 22% in assay [5].
